Test results: the supplement of paper PMC10724198
± gives the standard deviation of the averaged measurements.

Legend:
Saccharomyces cerevisiae [1] = assay: protein stability index of tFT-peptide fusion (C-terminal peptide) (PSI (0-1 scale)); higher = more stable (slower turnover)
Procedure: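 MPS profiling in S. cerevisiae of the tFT-X12 degron library: putative degron peptides plus stable controls, 12 aa, fused to the C-terminus of a sfGFP-mCherry timer. Cells are FACS-sorted into 8 mCherry/sfGFP bins and deep-sequenced. PSI runs from 0 (unstable) to 1 (stable). Backgrounds are wild type, das1Δ and doa10Δ at 30 °C, and wild type, das1Δ, cdc34-1 and cdc53-1 at 37 °C; 2-3 technical replicates each.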

Saccharomyces cerevisiae [2] = assay: as above; conditions: genetic background: wild type; temperature: 30 C
[3] = genetic background: cdc34-1, temperature: 37 C
[4] = genetic background: cdc53-1, temperature: 37 C
[5] = genetic background: das1 deletion, temperature: 30 C
[6] = genetic background: das1 deletion, temperature: 37 C
[7] = genetic background: doa10 deletion, temperature: 30 C
[8] = genetic background: wild type, temperature: 30 C
[9] = genetic background: wild type, temperature: 37 C
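Note: PSI is a weighted mean of sequencing reads over stability bins, variants kept only with over 10 reads, mCherry proximal and sfGFP distal, peptide attached via GGGS linker.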

| Sequence | protein stability index (Saccharomyces cerevisiae [1]; [3]) | protein stability index (Saccharomyces cerevisiae [1]; [4]) | protein stability index (Saccharomyces cerevisiae [1]; [5]) | protein stability index (Saccharomyces cerevisiae [1]; [6]) | protein stability index (Saccharomyces cerevisiae [1]; [7]) | protein stability index (Saccharomyces cerevisiae [1]; [8]) | protein stability index (Saccharomyces cerevisiae [1]; [9]) | protein stability index (Saccharomyces cerevisiae [2]) |
| --- | --- | --- | --- | --- | --- | --- | --- | --- |
| LQLRKQILLLMT | 0.348 ± 0.022 | 0.36 ± 0.011 | 0.299 ± 0.022 | 0.432 ± 0.005 | 0.169 ± 0.019 | 0.195 ± 0.013 | 0.233 ± 0.034 | 0.299 ± 0.025 |
| LQSVLRGIDCCA | 0.347 ± 0.0089 | 0.375 ± 0.016 | 0.252 ± 0.053 | 0.467 ± 0.0052 | 0.214 ± 0.0044 | 0.266 ± 0.018 | 0.4341 ± 0.0029 | 0.411 ± 0.085 |
| LRCIFVVVSFTP | 0.0799 ± 0.045 | 0.2 ± 0.025 | 0.172 ± 0.035 | 0.305 ± 0.014 | 0.129 ± 0.0095 | 0.153 ± 0.035 | 0.25 ± 0.0035 | 0.291 ± 0.15 |
| LRCLAIFLYRAF | 0.576 ± 0.045 | 0.6238 ± 0.0039 | 0.49 ± 0.02 | 0.644 ± 0.015 | 0.399 ± 0.013 | 0.404 ± 0.02 | 0.563 ± 0.015 | 0.466 ± 0.013 |
| LRRQAFRYRTLL | 0.458 ± 0.037 | 0.552 ± 0.031 | 0.569 ± 0.021 | 0.566 ± 0.006 | 0.1668 ± 0.0014 | 0.19 ± 0.0052 | 0.2454 ± 0.00035 | 0.221 ± 0.0096 |
| LRTLVFIWFMYV | 0.296 ± 0.045 | 0.481 ± 0.058 | 0.273 ± 0.035 | 0.4851 ± 0.0041 | 0.126 ± 0.0092 | 0.143 ± 0.024 | 0.2612 ± 0.00061 | 0.19 ± 0.067 |
| LRTYSFTIGTLC | 0.616 ± 0.052 | 0.637 ± 0.027 | 0.471 ± 0.024 | 0.6402 ± 0.0061 | 0.241 ± 0.027 | 0.279 ± 0.035 | 0.492 ± 0.015 | 0.385 ± 0.012 |
| LSALMVLSFILV | 0.377 ± 0.016 | 0.4332 ± 0.0036 | 0.379 ± 0.024 | 0.4573 ± 0.00059 | 0.343 ± 0.011 | 0.355 ± 0.028 | 0.428 ± 0.0022 | 0.418 ± 0.033 |
| LSFRLSYPLPIY | 0.418 ± 0.017 | 0.47 ± 0.025 | 0.352 ± 0.034 | 0.5403 ± 0.0029 | 0.1 ± 0.013 | 0.108 ± 0.0014 | 0.132 ± 0.0069 | 0.178 ± 0.032 |
| LSIALPFPVLCR | 0.0213 ± 0.0045 | 0.038 ± 0.03 | 0.115 ± 0.019 | 0.091924 ± 4.9e-05 | 0.0844 ± 0.017 | 0.0877 ± 0.025 | 0.0459 ± 0.011 | 0.134 ± 0.012 |
| LSITQLFCLCAV | 0.317 ± 0.0048 | 0.337 ± 0.02 | 0.289 ± 0.031 | 0.4 ± 0.0069 | 0.2322 ± 0.0017 | 0.272 ± 0.016 | 0.356 ± 0.006 | 0.3742 ± 0.0031 |
| LSLSLQVVVFSM | 0.438 ± 0.034 | 0.497 ± 0.022 | 0.317 ± 0.024 | 0.484 ± 0.0062 | 0.3203 ± 0.00038 | 0.322 ± 0.021 | 0.457 ± 0.022 | 0.467 ± 0.022 |
| LSPYPLTFLFSQ | 0.693 ± 0.07 | 0.7506 ± 0.0056 | 0.648 ± 0.014 | 0.742 ± 0.0096 | 0.365 ± 0.014 | 0.393 ± 0.043 | 0.61752 ± 0.00015 | 0.51 ± 0.042 |
| LSWWCFLVLLHW | 0.172 ± 0.0081 | 0.14 ± 0.044 | 0.232 ± 0.026 | 0.323 ± 0.021 | 0.262 ± 0.017 | 0.202 ± 0.016 | 0.268 ± 0.012 | 0.302 ± 0.094 |
| LTPKRLTVCRLC | 0.553 ± 0.066 | 0.758 ± 0.012 | 0.688 ± 0.01 | 0.7862 ± 0.0057 | 0.306 ± 0.019 | 0.318 ± 0.008 | 0.628 ± 0.066 | 0.512 ± 0.079 |
| LVACLGYAVYCL | 0.529 ± 0.042 | 0.557 ± 0.03 | 0.402 ± 0.024 | 0.573 ± 0.0087 | 0.369 ± 0.015 | 0.394 ± 0.017 | 0.5568 ± 0.0018 | 0.46 ± 0.012 |
| LVCFFLFSLFYL | 0.433 ± 0.02 | 0.479 ± 0.018 | 0.335 ± 0.028 | 0.5331 ± 0.0039 | 0.357 ± 0.015 | 0.358 ± 0.029 | 0.5098 ± 0.0013 | 0.386 ± 0.037 |
| LVFCFRSLFLCS | 0.57 ± 0.057 | 0.603 ± 0.0097 | 0.542 ± 0.012 | 0.6784 ± 0.0048 | 0.254 ± 0.014 | 0.243 ± 0.019 | 0.39121 ± 0.00016 | 0.34 ± 0.022 |
| LVFRIRNANRLV | 0.615 ± 0.046 | 0.7144 ± 0.0041 | 0.6418 ± 0.0024 | 0.728 ± 0.024 | 0.127 ± 0.015 | 0.164 ± 0.026 | 0.314 ± 0.03 | 0.309 ± 0.014 |
| LVFSVIPVLFVL | 0.454 ± 0.011 | 0.474 ± 0.025 | 0.355 ± 0.015 | 0.528 ± 0.017 | 0.328 ± 0.015 | 0.318 ± 0.022 | 0.461 ± 0.027 | 0.419 ± 0.087 |

| Sequence | protein stability index (Saccharomyces cerevisiae [1]; [3]) | protein stability index (Saccharomyces cerevisiae [1]; [4]) | protein stability index (Saccharomyces cerevisiae [1]; [5]) | protein stability index (Saccharomyces cerevisiae [1]; [6]) | protein stability index (Saccharomyces cerevisiae [1]; [7]) | protein stability index (Saccharomyces cerevisiae [1]; [8]) | protein stability index (Saccharomyces cerevisiae [1]; [9]) | protein stability index (Saccharomyces cerevisiae [2]) |
| --- | --- | --- | --- | --- | --- | --- | --- | --- |
| LVGTRTIFCFLH | 0.618 ± 0.017 | 0.721 ± 0.0084 | 0.57 ± 0.018 | 0.741 ± 0.027 | 0.207 ± 0.0076 | 0.218 ± 0.026 | 0.401 ± 0.0054 | 0.3164 ± 0.002 |
| LVGWSWAACWLA | 0.522 ± 0.057 | 0.608 ± 0.029 | 0.58 ± 0.024 | 0.712 ± 0.019 | 0.292 | 0.298 ± 0.012 | 0.396 ± 0.012 | 0.408 ± 0.016 |
| LVILRCAFPVYG | 0.469 ± 0.011 | 0.529 ± 0.0084 | 0.339 ± 0.03 | 0.538 ± 0.009 | 0.298 ± 0.014 | 0.332 ± 0.043 | 0.51345 ± 9.4e-05 | 0.3963 ± 0.00083 |
| LVLFVCFSLFMR | 0.153 ± 0.0065 | 0.166 ± 0.037 | 0.189 ± 0.019 | 0.291 ± 0.012 | 0.219 ± 0.0087 | 0.168 ± 0.022 | 0.2732 ± 0.00043 | 0.309 ± 0.058 |
| LVLPAFLLLLYP | 0.2108 ± 0.0018 | 0.183 ± 0.022 | 0.307 ± 0.034 | 0.4212 ± 0.0012 | 0.509 ± 0.023 | 0.309 ± 0.028 | 0.367 ± 0.0037 | 0.4134 ± 0.0013 |
| LVLVLAVFGCHD | 0.397 ± 0.022 | 0.543 ± 0.079 | 0.305 ± 0.03 | 0.563 ± 0.02 | 0.284 ± 0.014 | 0.319 ± 0.036 | 0.477 ± 0.024 | 0.42 ± 0.061 |
| LVNSPSISSLWL | 0.695 ± 0.019 | 0.736 ± 0.034 | 0.688 ± 0.015 | 0.746 ± 0.0087 | 0.6786 ± 0.0038 | 0.691 ± 0.018 | 0.719 ± 0.008 | 0.586 ± 0.22 |
| LVSLLYFIVSLF | 0.516 ± 0.013 | 0.579 ± 0.033 | 0.473 ± 0.0089 | 0.566 ± 0.031 | 0.241 ± 0.018 | 0.254 ± 0.011 | 0.323 ± 0.014 | 0.311 ± 0.007 |
| LVTRVFVYFSIG | 0.498 ± 0.061 | 0.583 ± 0.035 | 0.403 ± 0.034 | 0.554 ± 0.036 | 0.323 ± 0.0055 | 0.35 ± 0.034 | 0.514 ± 0.0066 | 0.413 ± 0.012 |
| LVVEALFYVLVS | 0.036 ± 0.011 | 0.0563 ± 0.025 | 0.126 ± 0.025 | 0.181 ± 0.0096 | 0.0851 ± 0.0085 | 0.107 ± 0.021 | 0.124 ± 0.014 | 0.219 ± 0.054 |
| LVVFFPVLPIFG | 0.504 ± 0.02 | 0.554 ± 0.0072 | 0.394 ± 0.027 | 0.566 ± 0.016 | 0.383 ± 0.014 | 0.408 ± 0.0064 | 0.58 ± 0.077 | 0.4965 ± 0.0017 |
| LVVRLFVWDVVW | 0.34 ± 0.016 | 0.374 ± 0.028 | 0.269 ± 0.043 | 0.473 ± 0.0097 | 0.224 ± 0.006 | 0.266 ± 0.028 | 0.436 ± 0.0076 | 0.347 ± 0.045 |
| LWAVGWIIYFIV | 0.0967 ± 0.0059 | 0.245 ± 0.014 | 0.211 ± 0.028 | 0.362 ± 0.0042 | 0.106 ± 0.026 | 0.106 ± 0.011 | 0.0941 ± 0.006 | 0.172 ± 0.024 |
| LWLISTYQLIGI | 0.454 ± 0.021 | 0.583 ± 0.048 | 0.433 ± 0.011 | 0.5727 ± 0.0033 | 0.431 ± 0.022 | 0.451 ± 0.0091 | 0.536 ± 0.034 | 0.521 ± 0.032 |
| MALAVRVVWCGA | 0.179 ± 0.014 | 0.179 ± 0.024 | 0.204 ± 0.034 | 0.328 ± 0.0034 | 0.173 ± 0.0053 | 0.207 ± 0.025 | 0.295 ± 0.0084 | 0.269 ± 0.014 |
| MCFFVFVLFLFC | 0.307 ± 0.034 | 0.398 ± 0.12 | 0.281 ± 0.029 | 0.406 ± 0.013 | 0.2977 ± 0.0013 | 0.269 ± 0.033 | 0.377 ± 0.011 | 0.33 ± 0.015 |
| MLVWCLFWVACV | 0.203 ± 0.026 | 0.29 ± 0.0085 | 0.22 ± 0.028 | 0.355 ± 0.01 | 0.148 ± 0.011 | 0.168 ± 0.025 | 0.258 ± 0.0057 | 0.236 ± 0.0031 |
| MRMEGPLALSVR | 0.5519 ± 0.005 | 0.558 ± 0.016 | 0.395 ± 0.028 | 0.558 ± 0.0087 | 0.353 ± 0.019 | 0.403 ± 0.017 | 0.551 ± 0.006 | 0.48 ± 0.011 |
| MRVCLCLMLIVN | 0.179 ± 0.024 | 0.282 ± 0.031 | 0.214 ± 0.018 | 0.372 ± 0.0069 | 0.143 ± 0.022 | 0.148 ± 0.028 | 0.238 ± 0.0029 | 0.238 ± 0.033 |
